Experimental data as given in the Human Domainome abundance scans (Beltran et al. 2025).
± gives the uncertainty stated by the source.

B1: Tripartite motif-containing protein 44, residues 174 to 218; numbered along this chain, Q96DX7 (parent)
chain: VAKRKCPDHGLDLSTYCQEDRQLICVLCPVIGAHQGHQLSTLDEA

Variants of: B1
Experiment: abundance fitness (aPCA) (normalised: wild type 0, dead -1); higher = more abundant; growth selection in yeast, the domain comes from the species named
Conditions: Homo sapiens

Variant | abundance fitness
VAKRKCPDHGLDLSTYCQEDRQLSCVLCPVIGAHQGHQLSTLDEA [I24S] | -0.31 ± 0.032
VAKRKCPDHGLDLSTYCQEDRQLVCVLCPVIGAHQGHQLSTLDEA [I24V] | -0.051 ± 0.026
VAKRKCPDHGLDLSTYCQEDRQLECVLCPVIGAHQGHQLSTLDEA [I24E] | -0.457 ± 0.03
VAKRKCPDHGLDLSTYCQEDRQLCCVLCPVIGAHQGHQLSTLDEA [I24C] | -0.043 ± 0.033
VAKRKCPDHGLDLSTYCQEDRQLYCVLCPVIGAHQGHQLSTLDEA [I24Y] | -0.262 ± 0.049
VAKRKCPDHGLDLSTYCQEDRQLKCVLCPVIGAHQGHQLSTLDEA [I24K] | -0.138 ± 0.037
VAKRKCPDHGLDLSTYCQEDRQLFCVLCPVIGAHQGHQLSTLDEA [I24F] | -0.173 ± 0.047
VAKRKCPDHGLDLSTYCQEDRQLDCVLCPVIGAHQGHQLSTLDEA [I24D] | -0.427 ± 0.039
VAKRKCPDHGLDLSTYCQEDRQLHCVLCPVIGAHQGHQLSTLDEA [I24H] | -0.312 ± 0.048
VAKRKCPDHGLDLSTYCQEDRQLLCVLCPVIGAHQGHQLSTLDEA [I24L] | -0.068 ± 0.029
VAKRKCPDHGLDLSTYCQEDRQLTCVLCPVIGAHQGHQLSTLDEA [I24T] | -0.052 ± 0.028
VAKRKCPDHGLDLSTYCQEDRQLMCVLCPVIGAHQGHQLSTLDEA [I24M] | -0.041 ± 0.031
VAKRKCPDHGLDLSTYCQEDRQLNCVLCPVIGAHQGHQLSTLDEA [I24N] | -0.407 ± 0.048
VAKRKCPDHGLDLSTYCQEDRQLRCVLCPVIGAHQGHQLSTLDEA [I24R] | -0.171 ± 0.026
VAKRKCPDHGLDLSTYCQEDRQLACVLCPVIGAHQGHQLSTLDEA [I24A] | -0.121 ± 0.028
VAKRKCPDHGLDLSTYCQEDRQLICFLCPVIGAHQGHQLSTLDEA [V26F] | -0.052 ± 0.045
VAKRKCPDHGLDLSTYCQEDRQLICKLCPVIGAHQGHQLSTLDEA [V26K] | 0.113 ± 0.033
VAKRKCPDHGLDLSTYCQEDRQLICCLCPVIGAHQGHQLSTLDEA [V26C] | 0.002 ± 0.032
VAKRKCPDHGLDLSTYCQEDRQLICDLCPVIGAHQGHQLSTLDEA [V26D] | 0.046 ± 0.031

Variant | abundance fitness
VAKRKCPDHGLDLSTYCQEDRQLICALCPVIGAHQGHQLSTLDEA [V26A] | 0.042 ± 0.026
VAKRKCPDHGLDLSTYCQEDRQLICELCPVIGAHQGHQLSTLDEA [V26E] | 0.066 ± 0.028
VAKRKCPDHGLDLSTYCQEDRQLICGLCPVIGAHQGHQLSTLDEA [V26G] | 0.002 ± 0.026
VAKRKCPDHGLDLSTYCQEVRQLICVLCPVIGAHQGHQLSTLDEA [D20V] | -0.642 ± 0.032
VAKRKCPDHGLDLSTYCQELRQLICVLCPVIGAHQGHQLSTLDEA [D20L] | -0.656 ± 0.038
VAKRKCPDHGLDLSTYCQENRQLICVLCPVIGAHQGHQLSTLDEA [D20N] | -0.419 ± 0.056
VAKRKCPDHGLDLSTYCQEPRQLICVLCPVIGAHQGHQLSTLDEA [D20P] | -0.896 ± 0.079
VAKRKCPDHGLDLSTYCQEGRQLICVLCPVIGAHQGHQLSTLDEA [D20G] | -0.487 ± 0.026
VAKRKCPDHGLDLSTYCQEKRQLICVLCPVIGAHQGHQLSTLDEA [D20K] | -0.3 ± 0.036
VAKRKCPDHGLDLSTYCQESRQLICVLCPVIGAHQGHQLSTLDEA [D20S] | -0.138 ± 0.032
VAKRKCPDHGLDLSTYCQEFRQLICVLCPVIGAHQGHQLSTLDEA [D20F] | -0.914 ± 0.14
VAKRKCPDHGLDLSTYCQECRQLICVLCPVIGAHQGHQLSTLDEA [D20C] | -0.045 ± 0.045
VAKRKCPDHGLDLSTYCQEQRQLICVLCPVIGAHQGHQLSTLDEA [D20Q] | -0.377 ± 0.047
VAKRKCPDHGLDLSTYCQEARQLICVLCPVIGAHQGHQLSTLDEA [D20A] | -0.585 ± 0.034
VAKRKCPDHGLDLSTYCQEMRQLICVLCPVIGAHQGHQLSTLDEA [D20M] | -0.685 ± 0.051
VAKRKCPDHGLDLSTYCQEHRQLICVLCPVIGAHQGHQLSTLDEA [D20H] | -0.141 ± 0.047
VAKRKCPDHGLDLSTYCQEERQLICVLCPVIGAHQGHQLSTLDEA [D20E] | -0.033 ± 0.029
VAKRKCPDHGLDLSTYCQETRQLICVLCPVIGAHQGHQLSTLDEA [D20T] | -0.217 ± 0.037
VAKRKCPDHGLDLSTYCQEYRQLICVLCPVIGAHQGHQLSTLDEA [D20Y] | -0.57 ± 0.1

Variant | abundance fitness
VAKRKCPDHGLDLSTYCQERRQLICVLCPVIGAHQGHQLSTLDEA [D20R] | -0.072 ± 0.026
VAKRKCPDHGLDLSTYCQNDRQLICVLCPVIGAHQGHQLSTLDEA [E19N] | -0.033 ± 0.04
VAKRKCPDHGLDLSTYCQHDRQLICVLCPVIGAHQGHQLSTLDEA [E19H] | -0.032 ± 0.045
VAKRKCPDHGLDLSTYCQLDRQLICVLCPVIGAHQGHQLSTLDEA [E19L] | -0.081 ± 0.027
VAKRKCPDHGLDLSTYCQYDRQLICVLCPVIGAHQGHQLSTLDEA [E19Y] | -0.082 ± 0.058
VAKRKCPDHGLDLSTYCQQDRQLICVLCPVIGAHQGHQLSTLDEA [E19Q] | -0.062 ± 0.031
VAKRKCPDHGLDLSTYCQSDRQLICVLCPVIGAHQGHQLSTLDEA [E19S] | -0.048 ± 0.028
VAKRKCPDHGLDLSTYCQMDRQLICVLCPVIGAHQGHQLSTLDEA [E19M] | -0.108 ± 0.032
VAKRKCPDHGLDLSTYCQRDRQLICVLCPVIGAHQGHQLSTLDEA [E19R] | -0.098 ± 0.027
VAKRKCPDHGLDLSTYCQVDRQLICVLCPVIGAHQGHQLSTLDEA [E19V] | -0.06 ± 0.027
VAKRKCPDHGLDLSTYCQPDRQLICVLCPVIGAHQGHQLSTLDEA [E19P] | -0.198 ± 0.035
VAKRKCPDHGLDLSTYCQIDRQLICVLCPVIGAHQGHQLSTLDEA [E19I] | -0.063 ± 0.065
VAKRKCPDHGLDLSTYCQTDRQLICVLCPVIGAHQGHQLSTLDEA [E19T] | -0.01 ± 0.037
VAKRKCPDHGLDLSTYCQWDRQLICVLCPVIGAHQGHQLSTLDEA [E19W] | -0.153 ± 0.028
VAKRKCPDHGLDLSTYCQEDRQVICVLCPVIGAHQGHQLSTLDEA [L23V] | -0.048 ± 0.027
VAKRKCPDHGLDLSTYCQEDRQSICVLCPVIGAHQGHQLSTLDEA [L23S] | 0.014 ± 0.028
VAKRKCPDHGLDLSTYCQEDRQEICVLCPVIGAHQGHQLSTLDEA [L23E] | 0.066 ± 0.03
VAKRKCPDHGLDLSTYCQEDRQWICVLCPVIGAHQGHQLSTLDEA [L23W] | 0.001 ± 0.027
VAKRKCPDHGLDLSTYCQEDRQNICVLCPVIGAHQGHQLSTLDEA [L23N] | -0.09 ± 0.056
